We go through four proteins from patent US7083786.

The labels stand for the following.
T1: human complement factor C4, P0C0L4
T1 chain: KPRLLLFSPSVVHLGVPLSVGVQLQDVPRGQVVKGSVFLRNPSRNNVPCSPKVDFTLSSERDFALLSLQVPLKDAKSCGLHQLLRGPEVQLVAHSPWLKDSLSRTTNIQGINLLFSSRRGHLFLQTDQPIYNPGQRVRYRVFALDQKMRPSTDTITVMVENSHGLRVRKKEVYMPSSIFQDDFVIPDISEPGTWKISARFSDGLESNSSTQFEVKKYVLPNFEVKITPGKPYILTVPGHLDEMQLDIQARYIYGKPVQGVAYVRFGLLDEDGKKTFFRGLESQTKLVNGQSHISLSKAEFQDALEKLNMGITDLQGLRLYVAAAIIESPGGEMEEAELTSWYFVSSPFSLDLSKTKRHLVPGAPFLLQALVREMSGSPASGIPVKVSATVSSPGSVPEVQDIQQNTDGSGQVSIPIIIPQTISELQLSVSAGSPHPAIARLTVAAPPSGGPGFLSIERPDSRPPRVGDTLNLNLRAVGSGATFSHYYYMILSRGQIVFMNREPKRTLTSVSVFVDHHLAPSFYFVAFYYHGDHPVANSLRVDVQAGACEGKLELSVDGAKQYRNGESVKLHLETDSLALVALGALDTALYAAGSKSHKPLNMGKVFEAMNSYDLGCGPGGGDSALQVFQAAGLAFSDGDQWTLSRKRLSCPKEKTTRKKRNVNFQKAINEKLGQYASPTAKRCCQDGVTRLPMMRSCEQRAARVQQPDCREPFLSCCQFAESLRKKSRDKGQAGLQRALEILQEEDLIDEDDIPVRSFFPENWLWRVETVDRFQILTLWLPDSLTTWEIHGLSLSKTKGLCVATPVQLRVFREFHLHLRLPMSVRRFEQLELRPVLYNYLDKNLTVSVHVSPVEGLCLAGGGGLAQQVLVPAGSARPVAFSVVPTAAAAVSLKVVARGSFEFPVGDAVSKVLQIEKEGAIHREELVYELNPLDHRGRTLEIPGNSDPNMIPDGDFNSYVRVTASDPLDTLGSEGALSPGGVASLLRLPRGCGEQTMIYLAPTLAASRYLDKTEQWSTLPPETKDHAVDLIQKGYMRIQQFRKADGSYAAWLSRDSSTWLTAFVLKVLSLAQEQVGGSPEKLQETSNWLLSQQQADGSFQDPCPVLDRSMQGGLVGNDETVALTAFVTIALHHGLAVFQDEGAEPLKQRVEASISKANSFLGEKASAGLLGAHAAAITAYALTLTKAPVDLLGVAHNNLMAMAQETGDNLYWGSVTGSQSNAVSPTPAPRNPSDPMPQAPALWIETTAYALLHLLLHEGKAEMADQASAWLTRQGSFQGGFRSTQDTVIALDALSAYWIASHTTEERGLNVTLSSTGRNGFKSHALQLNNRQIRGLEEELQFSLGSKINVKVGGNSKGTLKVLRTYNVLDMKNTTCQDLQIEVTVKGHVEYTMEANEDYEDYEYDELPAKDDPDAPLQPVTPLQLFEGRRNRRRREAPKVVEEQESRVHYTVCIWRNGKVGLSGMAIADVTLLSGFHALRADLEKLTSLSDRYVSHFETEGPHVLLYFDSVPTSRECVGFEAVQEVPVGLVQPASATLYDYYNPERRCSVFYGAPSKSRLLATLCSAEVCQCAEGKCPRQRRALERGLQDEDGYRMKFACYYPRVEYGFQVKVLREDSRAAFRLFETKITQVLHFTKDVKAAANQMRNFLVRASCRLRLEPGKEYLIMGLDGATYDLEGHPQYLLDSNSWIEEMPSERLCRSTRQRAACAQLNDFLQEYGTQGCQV

B1: C1s from human serum C1 (protein)
chain: EPTMYGEILSPNYPQAYPSEVEKSWDIEVPEGYGIHLYFTHLDIELSENCAYDSVQIISGDTEEGRLCGQRSSNNPHSPIVEEFQVPYNKLQVIFKSDFSNEERFTGFAAYYVATDINECTDFVDVPCSHFCNNFIGGYFCSCPPEYFLHDDMKNCGVNCSGDVFTALIGEIASPNYPKPYPENSRCEYQIRLEKGFQVVVTLRREDFDVEAADSAGNCLDSLVFVAGDRQFGPYCGHGFPGPLNIETKSNALDIIFQTDLTGQKKGWKLRYHGDPMPCPKEDTPNSVWEPAKAKYVFRDVVQITCLDGFEVVEGRVGATSFYSTCQSNGKWSNSKLKCQPVDCGIPESIENGKVEDPESTLFGSVIRYTCEEPYYYMENGGGGEYHCAGNGSWVNEVLGPELPKCVPVCGVPREPFEEKQRIIGGSDADIKNFPWQVFFDNPWAGGALINEYWVLTAAHVVEGNREPTMYVGSTSVQTSRLAKSKMLTPEHVFIHPGWKLLEVPEGRTNFDNDIALVRLKDPVKMGPTVSPICLPGTSSDYNLMDGDLGLISGWGRTEKRDRAVRLKAARLPVAPLRKCKEVKVEKPTADAEAYVFTPNMICAGGEKGMDSCKGDSGGAFAVQDPNDKTKFYAAGLVSWGPQCGTYGLYTRVKNYVDWIMKTMQENSTPRED
B2: MASP-1 (MBP-associated serine protease) from human plasma (protein)
chain: HTVELNNMFGQIQSPGYPDSYPSDSEVTWNITVPDGFRIKLYFMHFNLESSYLCEYDYVKVETEDQVLATFCGRETTDTEQTPGQEVVLSPGSFMSITFRSDFSNEERFTGFDAHYMAVDVDECKEREDEELSCDHYCHNYIGGYYCSCRFGYILHTDNRTCRVECSDNLFTQRTGVITSPDFPNPYPKSSECLYTIELEEGFMVNLQFEDIFDIEDHPEVPCPYDYIKIKVGPKVLGPFCGEKAPEPISTQSHSVLILFHSDNSGENRGWRLSYRAAGNEPELQPPVHGKIEPSQAKYFFKDQVLVSCDTGYKVLKDNVEMDTFQIECLKDGTWSNKIPTCKIVDCRAPGELEHGLITFSTRNNLTTYKSEIKYSCQEPYYKMLNNNTGIYTCSAQGVWMNKVLGRSLPTCLPVCGLPKFSRKLMARIFNGRPAQKGTTPWIAMLSHLNGQPFCGGSLLGSSWIVTAAHCLHQSLDPKDPTLRDSDLLSPSDFKIILGKHWRLRSDENEQHLGVKHTTLHPKYDPNTFENDVALVELLESPVLNAFVMPICLPEGPQQEGAMVIVSGWGKQFLQRFPETLMEIEIPIVDHSTCQKAYAPLKKKVTRDMICAGEKEGGKDACSGDSGGPMVTLNRERGQWYLVGTVSWGDDCGKKDRYGVYSYIHHNKDWIQRVTGVRN
B3: mannan-binding lectin associated serine protease-2 (MASP-2), 76 kDa protein from human plasma (protein)
chain: TPLGPKWPEPVFGRLASPGFPGEYANDQERRWTLTAPPGYRLRLYFTHFDLELSHLCEYDFVKLSSGAKVLATLCGQESTDTERAPGKDTFYSLGSSLDITFRSDYSNEKPFTGFEAFYAAEDIDECQVAPGEAPTCDHHCHNHLGGFYCSCRAGYVLHRNKRTCSALCSGQVFTQRSGELSSPEYPRPYPKLSSCTYSISLEEGFSVILDFVESFDVETHPETLCPYDFLKIQTDREEHGPFCGKTLPHRIETKSNTVTITFVTDESGDHTGWKIHYTSTAQPCPYPMAPPNGHVSPVQAKYILKDSFSIFCETGYELLQGHLPLKSFTAVCQKDGSWDRPMPACSIVDCGPPDDLPSGRVEYITGPGVTTYKAVIQYSCEETFYTMKVNDGKYVCEADGFWTSSKGEKSLPVCEPVCGLSARTTGGRIYGGQKAKPGDFPWQVLILGGTTAAGALLYDNWVLTAAHAVYEQKHDASALDIRMGTLKRLSPHYTQAWSEAVFIHEGYTHDAGFDNDIALIKLNNKVVINSNITPICLPRKEAESFMRTDDIGTASGWGLTQRGFLARNLMYVDIPIVDHQKCTAAYEKPPYPRGSVTANMLCAGLESGGKDSCRGDSGGALVFLDSETERWFVGGIVSWGSMNCGEAGQYGVYTKVINYIPWIENIISDF
B4: C1r from human serum C1 (protein)
chain: SIPIPQKLFGEVTSPLFPKPYPNNFETTTVITVPTGYRVKLVFQQFDLEPSEGCFYDYVKISADKKSLGRFCGQLGSPLGNPPGKKEFMSQGNKMLLTFHTDFSNEENGTIMFYKGFLAYYQAVDLDECASRSKSGEEDPQPQCQHLCHNYVGGYFCSCRPGYELQEDRHSCQAECSSELYTEASGYISSLEYPRSYPPDLRCNYSIRVERGLTLHLKFLEPFDIDDHQQVHCPYDQLQIYANGKNIGEFCGKQRPPDLDTSSNAVDLLFFTDESGDSRGWKLRYTTEIIKCPQPKTLDEFTIIQNLQPQYQFRDYFIATCKQGYQLIEGNQVLHSFTAVCQDDGTWHRAMPRCKIKDCGQPRNLPNGDFRYTTTMGVNTYKARIQYYCHEPYYKMQTRAGSRESEQGVYTCTAQGIWKNEQKGEKIPRCLPVCGKPVNPVEQRQRIIGGQKAKMGNFPWQVFTNIHGRGGGALLGDRWILTAAHTLYPKEHEAQSNASLDVFLGHTNVEELMKLGNHPIRRVSVHPDYRQDESYNFEGDIALLELENSVTLGPNLLPICLPDNDTFYDLGLMGYVSGFGVMEEKIAHDLRFVRLPVANPQACENWLRGKNRMDVFSQNMFCAGHPSLKQDACQGDSGGVFAVRDPNTDRWVATGIVSWGIGCSRGYGFYTKVLNYVDWIKKEMEEED

This data set deals with T1, human complement factor C4, P0C0L4.
B1: the “C4 deposition on a Western blot incubated with human serum (C4 activation)” value (“C4 deposition” below) was “C4 deposition, which could be inhibited by enzyme inhibitors, was observed at a position corresponding to C1r and C1s, which are not separated by the technique employed”.

Consider B2, for which the “C4 deposition” value is recorded as “no C4 deposition was observed at positions corresponding to MASP-1”.

Take B3: the “C4 deposition” value is “C4 was deposited at a position corresponding to the MASP-2 band”. As for B4, the entry is “C4 deposition, which could be inhibited by enzyme inhibitors, was observed at a position corresponding to C1r and C1s, which are not separated by the technique employed”.
